Data published in patent publication US20250277031A1 (BEIJING HANMI PHARMACEUTICAL, published 2025).

T1: recombinant human B7-H2 (ACROBiosystems) (human, UniProt O75144 19-258, limits assumed)
T1 construct: counted here as a B7 family member
T1 sequence (looked up): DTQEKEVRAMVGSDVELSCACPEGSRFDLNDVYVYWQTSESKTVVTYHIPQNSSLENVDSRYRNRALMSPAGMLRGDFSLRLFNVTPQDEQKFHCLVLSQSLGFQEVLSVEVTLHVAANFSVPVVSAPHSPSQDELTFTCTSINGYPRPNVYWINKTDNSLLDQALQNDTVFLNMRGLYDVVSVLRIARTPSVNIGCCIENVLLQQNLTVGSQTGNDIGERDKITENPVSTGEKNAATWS


How the values were obtained:
[1] = molecular target: recombinant human SIRPγ (ACROBiosystems) (human, UniProt Q9P1W8 29-360, limits assumed); assay: ELISA, coated recombinant protein
Sequence of recombinant human SIRPγ (ACROBiosystems) (Q9P1W8 29-360 limits assumed): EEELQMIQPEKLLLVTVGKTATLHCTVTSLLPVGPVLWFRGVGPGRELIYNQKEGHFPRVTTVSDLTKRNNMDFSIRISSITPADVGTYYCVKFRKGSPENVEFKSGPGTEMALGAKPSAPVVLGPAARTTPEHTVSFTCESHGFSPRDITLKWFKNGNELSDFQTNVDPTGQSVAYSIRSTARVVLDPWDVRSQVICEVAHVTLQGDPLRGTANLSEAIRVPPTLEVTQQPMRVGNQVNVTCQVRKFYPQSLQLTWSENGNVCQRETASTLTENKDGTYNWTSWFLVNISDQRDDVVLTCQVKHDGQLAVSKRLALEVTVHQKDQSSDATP
Protocol: (§1) Binding specificity of the chimeric anti-human CD47 mAbs was determined by ELISA. A 96-well high-adsorption ELISA plate was coated with 1 μg/mL of the recombinant human PD1, CD28, CTLA4, ICOS, BTLA, CD47, PD-L2, CD80, CD86, B7-H2, CD47, SIRPα and SIRPγ (all from ACROBiosystems), at 100 μL per well using carbonate buffer solution, pH=9.6 at 4° C. overnight. The plate was washed 5 times with PBST, and then blocked using PBST with 1% BSA, 300 μL/well, and incubated at 25° C. for 1 hour, and then washed 5 times with PBST. The chimeric anti-human CD47 mAb samples serially diluted in PBST with 1% BSA and the control CC-90002 and the isotype control were added, 100 μL/well, incubated at 25° C. for 1 hour, and then washed 5 times with PBST. The horseradish peroxidase-labeled anti-human IgG antibody (Chemicon, catalog number AP309P) diluted 1:10000 in PBST with 1% BSA was then added, 100 μL per well, and incubated at 25° C. for 1 hour. The plate was washed 5 times with PBST. The colorimetric substrate TMB was added, 100 μL/well, and developed at room temperature for 10 minutes. 1M H₂SO₄ was added, 100 μL/well, to stop the development. The absorbance at 450 nm was read on a microplate reader.

[2] = molecular target: T1, recombinant human B7-H2 (ACROBiosystems); assay: ELISA, coated recombinant protein
Protocol: as §1

recombinant human CD47 [3] = molecular target: T2, recombinant human CD47 (human, UniProt Q08722 19-139); assay: ELISA, plate coated with 1 µg/mL recombinant human CD47, OD450
T2 construct: also called antigen CD47
T2 sequence (Q08722 19-139 limits assumed): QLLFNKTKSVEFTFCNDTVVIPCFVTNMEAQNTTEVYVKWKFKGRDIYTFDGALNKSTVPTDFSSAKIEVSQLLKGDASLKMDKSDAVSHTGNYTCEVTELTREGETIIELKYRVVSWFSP
Protocol: A 96-well high-adsorption ELISA plate was coated with 1 μg/mL of the recombinant human CD47 (Sino Biological Inc.) at 100 μL per well using carbonate buffer solution, pH=9.6 at 4° C. overnight. The plate was washed 5 times with PBST, and then blocked using PBST with 1% BSA, 300 μL/well, and incubated at 25° C. for 1 hour, and then washed 5 times with PBST. The anti-human CD47 antibody samples and the control CC-90002 (a patent sequence from WO2016109415) were added, 100 μL/well, incubated at 25° C. for 1 hour, and then washed 5 times with PBST. The horseradish peroxidase-labeled anti-mouse IgG antibody (Abcam, catalog number Ab7068) diluted 1:10000 in PBST with 1% BSA was then added, 100 μL per well, and incubated at 25° C. for 1 hour. The plate was washed 5 times with PBST. The colorimetric substrate TMB was added, 100 μL/well, and developed at room temperature for 10 minutes. 1M H₂SO₄ was added, 100 μL/well, to stop the development. The absorbance at 450 nm was read on a microplate reader.

[4] = molecular target: T3, recombinant human CD47-Fc protein (ACROBiosystems, catalog number CD7-H52A5) (human, UniProt Q08722 19-139); assay: blocking ELISA: plate coated with human CD47-Fc, 2 nM biotin-labelled SIRPα as the blocked ligand, falling OD450 curve; the sheet labels the half-maximal value EC50
T3 construct: bought; not shown: Fc part of a bought fusion protein, not described
T3 sequence (Q08722 19-139 limits assumed): as above
Protocol: (§2) A 96-well high-adsorption ELISA plate was coated with 1 μg/mL of the recombinant human CD47-Fc (ACROBiosystems) at 100 μL per well using carbonate buffer solution, pH=9.6 at 4° C. overnight. The plate was washed 5 times with PBST, and then blocked using PBST with 1% BSA, 300 μL/well, and incubated at 25° C. for 1 hour, and then washed 5 times with PBST. The anti-human CD47 antibody samples were added, 50 μL/well, the biotin-labelled SIRPα (ACROBiosystems) was added at a concentration of 4 nM (a final concentration of 2 nM), 50 μL/well, incubated at 25° C. for 90 minutes, and then washed 5 times with PBST. The Streptavidin-HRP (BD Pharmingen, catalog number 554066) diluted 1:1000 in PBST with 1% BSA was then added, 100 μL per well, and incubated at 25° C. for 1 hour. The plate was washed 5 times with PBST. The colorimetric substrate TMB was added, 100 μL/well, and developed at room temperature for 10 minutes. 1M H₂SO₄ was added, 100 μL/well, to stop the development. The absorbance at 450 nm was read on a microplate reader.

[5] = molecular target: T3, recombinant human CD47-Fc protein …; assay: competition ELISA, coated CD47-Fc, competitor biotin-labelled SIRPα 2 nM
Protocol: as §2, with “ELISA was used to determine whether the anti-human CD47 selection antibodies secreted by the positive clones can block the binding of CD47/SIRPα. A 96-well” for “A 96-well”, “anti-human CD47 selection antibody samples” for “anti-human CD47 antibody samples”, “microplate reader. The anti-human CD47 selection antibodies capable of inhibiting the binding of the human CD47-Fc/biotin-labelled SIRPα have a neutralizing activity. […]” for “microplate reader.”

recombinant human CD47 [6] = molecular target: T2, recombinant human CD47; assay: ELISA, coated recombinant human CD47
Protocol: ELISA was used to screen the anti-human CD47 antibodies in the hybridoma culture supernatants. A 96-well high-adsorption ELISA plate (Costar, catalog number 42592) was coated with 1 μg/mL of the recombinant human CD47 (Sino Biological Inc.) at 100 μL per well using carbonate buffer solution, pH=9.6 at 4° C. overnight. The plate was washed 5 times with PBST, and then blocked using PBST with 1% BSA, 300 μL/well, and incubated at 25° C. for 1 hour, and then washed 5 times with PBST. The culture supernatant samples and positive serum control were added, 100 μL/well, incubated at 25° C. for 1 hour, and then washed 5 times with PBST. The horseradish peroxidase-labeled anti-mouse IgG antibody (Abcam, catalog number Ab7068) diluted 1:10000 in PBST with 1% BSA was then added, 100 μL per well, and incubated at 25° C. for 1 hour. The plate was washed 5 times with PBST. The colorimetric substrate TMB was added, 100 μL/well, and developed at room temperature for 10 minutes. 1M H₂SO₄ was added, 100 μL/well, to stop the development. The absorbance at 450 nm was read on a microplate reader. Positive clones capable of secreting the anti-human CD47 selection antibodies were selected according to the magnitude of OD₄₅₀ₙₘ.

[7] = molecular target: T3, recombinant human CD47-Fc protein …; assay: blocking ELISA: plate coated with human CD47-Fc, biotin-labelled SIRPα as the blocked ligand, falling OD450 curve; the sheet labels the half-maximal value EC50
recombinant human CD47 [8] = molecular target: T2, recombinant human CD47; assay: ELISA, plate coated with recombinant human CD47, OD450
recombinant human CD47 [9] = molecular target: T2, recombinant human CD47; assay: SPR, Biacore X100, antibody captured on Protein A chip, CD47 as analyte
From the text: Biacore X100 instrument (purchased from GE) was used to detect the kinetic constant of the chimeric anti-human CD47 monoclonal antibodies binding to its antigen human CD47. This instrument utilizes optical surface plasmon resonance technology to detect the association and dissociation between the molecules coated on the biochip and the molecules to be tested. The main reagent used is Protein A chip (GE Healthcare, 29-1275-57). The experimental procedure is briefly described as follows: the chimeric anti-human CD47 antibodies were diluted in running buffer (1×HBS-EP+10 mM HEPES, 150 mM NaCl, 3 mM EDTA, 0.05% surfactant P20, pH7.4). During the capture-binding phase, the antibodies at a concentration of 2 μg/mL were injected for 60 seconds at a speed of 10 μL/min. During the binding phase, the antigen CD47 was diluted into multiple concentrations with running buffer, injected for 120 seconds at a speed of 30 μL/min respectively. During the dissociation phase, running buffer was injected for 600 seconds at a speed of 10 μL/min. The regeneration condition is 10 mM glycinate solution, pH1.5. Association kinetic constants and dissociation kinetic constants were analyzed and calculated by Biacore X100 evaluation software. The association kinetic constants, dissociation kinetic constants and dissociation equilibrium constants of the chimeric anti-human CD47 antibodies were shown in Table 7.
As mentioned above, Biacore X100 instrument was used to detect the binding kinetic constant of the humanized anti-human CD47 monoclonal antibodies to its antigen human CD47. The association kinetic constants, dissociation kinetic constants and dissociation equilibrium constants of the humanized anti-human CD47 antibodies were shown in Table 10.

| IC50 [5] | EC50 (recombinant human CD47 [6]) | IC50 [7] | EC50 (recombinant human CD47 [8]) | Kd (recombinant human CD47 [9]) | koff (recombinant human CD47 [9]) | kon (recombinant human CD47 [9]) | Binder | also measured |
| --- | --- | --- | --- | --- | --- | --- | --- | --- |
| 2.1 nM | 0.273 nM |  |  |  |  |  | anti-human CD47 murine monoclonal antibody secreted by clone CD47-18-10 (antibody, V domains shown, murine hybridoma antibody) VH: EVQLQQSGAELVKPGASVKLSCTASGFNIEDIYMHWVKQRPEQGLEWIGRIDPANDNTKYGPKFQGRATMTADTSSNTAYLQLSGLTSEDTGVYYCVRRITTDVMDYWGQGTSVTVSS VL: DIVMTQSQKFMSTSVGDRVSITCKASQNVRTSIAWYQQKPGQSPKTLIYLASNRHTGVPDRFTGSGSGTDFTLTISNVQSEDLADYFCLQHWNYPFTFGSGTKLEIK |  |
|  |  | 0.741 nM | 0.029 nM | 0.833 nM | 0.000852 s⁻¹ | 1.02e+06 M⁻¹ s⁻¹ | humanized anti-human CD47 monoclonal antibody BH3011b (antibody, human IgG4 S228P, kappa, V domains shown, variable regions of Z12; the summary calls the humanized antibody an IgG4; also called Z12; BH301Tb) VH: QVQLVQSGAEVKKPGSSVKVSCKASGFNIEDIYMHWVRQAPGQGLEWMGRIDPANDNTKYGPKLQGRVTITADTSTNTAYMELSSLRSEDTAVYYCVRRIPTDIMDYWGQGTTVTVSS VL: DIQMTQSPSSLSASVGDRVTITCKASQNVRTSIAWYQQKPGKAPKTLIYLASNRHTGVPSRFSGSGSGTEFTLTISNLQPEDFATYFCLQHWNYPFTFGQGTKLEIKR |  |

The next lines start with the binder.

| Binder | IC50 [5] | EC50 (recombinant human CD47 [6]) | IC50 [7] | EC50 (recombinant human CD47 [8]) | Kd (recombinant human CD47 [9]) | koff (recombinant human CD47 [9]) | kon (recombinant human CD47 [9]) | also measured |
| --- | --- | --- | --- | --- | --- | --- | --- | --- |
| chimeric anti-human CD47 monoclonal antibody mAb-18-10 N297A (antibody, human IgG1, kappa, N297A, no further substitution applied) heavy: not shown light: DIVMTQSQKFMSTSVGDRVSITCKASQNVRTSIAWYQQKPGQSPKTLIYLASNRHTGVPDRFTGSGSGTDFTLTISNVQSEDLADYFCLQHWNYPFTFGSGTKLEIKRTVAAPSVFIFPPSDEQLKSGTASVVCLLNNFYPREAKVQWKVDNALQSGNSQESVTEQDSKDSTYSLSSTLTLSKADYEKHKVYACEVTHQGLSSPVTKSFNRGEC |  |  |  |  |  |  |  | binding result [1]: no binding; binding result [2]: no binding; EC50 (recombinant human CD47 [3]): 0.031 nM; IC50 [4]: 1.69 nM |
| anti-human CD47 murine monoclonal antibody secreted by clone CD47-18-5 (antibody, V domains shown, murine hybridoma antibody) VH: EVQLQQSGAELVKPGASVKLSCTASGFNIEDIYMHWVKQRPEQGLEWIGRIDPANDNTKYGPKLQGRATITADTSSNTAYLQLSGLTSEDTGVYYCVRRIPTDIMDYWGPGTSVTVSS VL: DIVMTQSQKFMSTSVGDRVSITCKASQNVRTSIAWYQQKSGQSPKTLIYLASNRHTGVPDRFTGSGSGTDFTLTISNVQSEDLADYFCLQHWNYPFTFGSGTKLEIK | 1.48 nM | 0.252 nM |  |  |  |  |  |  |
| humanized anti-human CD47 monoclonal antibody BH3008b (antibody, human IgG4 S228P, kappa, V domains shown, variable regions of Z11; the summary calls the humanized antibody an IgG4; also called Z11) VH: QVQLVQSGAEVKKPGSSVKVSCKASGFNIEDIYMHWVRQAPGQGLEWMGRIDPANDNTKYGPKLQGRVTITADTSTNTAYMELSSLRSEDTAVYYCVRRIPTDIMDYWGQGTTVTVSS VL: DIQMTQSPSSLSASVGDRVTITCKASQNVRTSIAWYQQKPGKAPKTLIYLASNRHTGVPSRFSGSGSGTEFTLTISNLQPEDFATYYCLQHWNYPFTFGQGTKLEIKR |  |  | 0.781 nM | 0.035 nM | 1.17 nM | 0.00117 s⁻¹ | 998000 M⁻¹ s⁻¹ |  |
